Results from patent publication US20240158494A1 (Biogen, published 2024).

T1: human transferrin receptor 2 (TfR2) overexpressed on BaF3 cells (human, UniProt Q9UP52 1-801)
T1 construct: whole, on cells
T1 sequence (looked up): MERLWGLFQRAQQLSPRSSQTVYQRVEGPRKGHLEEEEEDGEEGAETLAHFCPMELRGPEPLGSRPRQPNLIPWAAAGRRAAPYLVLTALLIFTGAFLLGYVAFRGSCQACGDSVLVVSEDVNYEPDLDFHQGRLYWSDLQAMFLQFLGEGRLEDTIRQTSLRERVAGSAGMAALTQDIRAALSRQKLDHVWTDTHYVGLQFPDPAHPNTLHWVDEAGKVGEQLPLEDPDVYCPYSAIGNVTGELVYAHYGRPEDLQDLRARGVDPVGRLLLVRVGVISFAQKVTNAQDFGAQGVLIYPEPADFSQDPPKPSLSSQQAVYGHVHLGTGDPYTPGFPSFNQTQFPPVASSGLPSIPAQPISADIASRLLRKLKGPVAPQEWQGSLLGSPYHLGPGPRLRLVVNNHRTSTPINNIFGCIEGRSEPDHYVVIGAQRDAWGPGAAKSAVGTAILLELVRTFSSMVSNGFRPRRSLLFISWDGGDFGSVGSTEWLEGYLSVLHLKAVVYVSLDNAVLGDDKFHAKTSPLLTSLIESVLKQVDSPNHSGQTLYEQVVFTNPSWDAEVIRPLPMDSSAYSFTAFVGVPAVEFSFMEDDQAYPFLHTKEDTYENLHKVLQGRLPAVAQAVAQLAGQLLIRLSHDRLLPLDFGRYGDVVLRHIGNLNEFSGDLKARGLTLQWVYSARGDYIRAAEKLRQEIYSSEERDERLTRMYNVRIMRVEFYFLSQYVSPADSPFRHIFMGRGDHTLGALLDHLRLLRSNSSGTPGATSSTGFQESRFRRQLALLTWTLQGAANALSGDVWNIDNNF


Experiments:
[1] = target: T1, human transferrin receptor 2 (TfR2) …; experiment: FACS on BaF3 cells overexpressing human TfR2
[2] = target: T2, mouse transferrin receptor (TfR1) (mouse, UniProt Q62351 1-763, limits assumed); experiment: not described
T2 construct: form and assay not described; also called mouse TfR

[3] = target: T3, cynomolgus monkey transferrin receptor 1 (TfR1), full length, expressed on cells (cynomolgus monkey, UniProt Q5RDH6 1-760 (Pongo abelii entry)); experiment: FACS on Ba/F3 cells, purified Fab
T3 construct: also called cyno TfR1; cyTfR

[4] = target: T4, human transferrin receptor 1 (TfR1), full length, expressed on cells (human, UniProt P02786 1-760); experiment: FACS on Ba/F3 cells, purified Fab
T4 construct: also called human TfR1; huTfR

[5] = target: T3, cynomolgus monkey transferrin receptor …; experiment: FACS on Ba/F3 cells, Fab supernatant
[6] = target: T4, human transferrin receptor 1 (TfR1), …; experiment: FACS on Ba/F3 cells, Fab supernatant

Row | binding result [1] | binding result [2] | EC50 [3] [nM] | EC50 [4] [nM] | EC50 [5] [nM] | EC50 [6] [nM] | Binder
1 | no binding (tested: 250 nM) |  |  |  |  |  | chimeric ANTIBODY B mAb (RabANTIBODY-B, bivalent huIgG1) (antibody, V domains shown, rabbit variable regions with a human IgG1 framework, bivalent huIgG1; also called rabAB-B) VH: QSLEESGGGLVQPEGSLTLTCKASGFSFSNSYWICWVRQAPGKGLEWIGCINTDADSTNYASWARGRFTISKTSSTTVTLQMTSLTAADTASYFCARQNNVFDPGYNLWGPGTLVTVSS VL: ELVLTQTPASVSEAVGGTVTIKCQASQNIGSNLAWYQQKPGQPPKLLIYDASKLASGVPSRFSGSGSGTEFTLTISDLECADAATYYCQCTVRGGAYGNAFGGGTEVVVK
2 | no binding (tested: 250 nM) |  |  |  |  |  | chimeric ANTIBODY-A mAb (RabANTIBODY-A, bivalent huIgG1) (antibody, V domains shown, rabbit variable regions with a human IgG1 framework, bivalent huIgG1; also called RabAB-A) VH: QSLEESGGGLVQPGASLTLTCKASGIDFSSSGYMCWVRQAPGKGLEWIGCIYTYSSNTYYASWAKGRFTISKTSSTTVTLQMTSLTAADTATYFCARGTYGYTGYTYTMGYFSLWGPGTLVTVSS VL: ELDMTQTPASVEAAVGGTVTIKCQASQNINSYLAWYQQKPGQPPKLLIYRASTLASGVPSRFKGSGSGTEFTLTISDLECADAATYYCQSYYYSGSSNYNAFGGGTELEIL

More lines, now with the values behind:

Row | Binder | binding result [1] | binding result [2] | EC50 [3] [nM] | EC50 [4] [nM] | EC50 [5] [nM] | EC50 [6] [nM]
3 | TfR1 ANTIBODY-A HC-H2C hIgG4Fab/LC-L0 hKappa (ΔC214) (Fab, V domains shown, also called exemplary antibody (ii)) VH: QSLVESGGGLVQPGGSLRLSCAASGIDFSSSGYMCWVRQAPGKGLEWVGCIYTYSSNTYYAASVKGRFTISKTSSTTVYLQMNSLKTEDTAVYYCARGTYGYTGYTYTMGYFSLWGQGTLVTVSS VL: DIQMTQSPSTLSASVGDRVTITCQASQNINSYLAWYQQKPGKAPKLLIYRASSLESGVPSRFSGSGSGTEFTLTISSLQPDDFATYYCQSYYYSGSSNYNAFGGGTKVEIKR |  | no binding |  |  |  | 
4 | TfRANTIBODY-B HC-H4C/LC-L2 (C90T) hIgG1Fab′(1C) (Fab, V domains shown, also called ANTIBODY-B H4C/L2(C90T); H4C (C90T)/L2) VH: QSLVESGGGVVQPGRSLRLSCKASGFSFSNSYWICWVRQAPGKGLEWVGCINTDADSTNYASWARGRFTISKTSSTTVYLQMNSLRAEDTAVYYCARQNNVFDPGYNLWGPGTLVTVSS VL: ELVLTQSPSTLSASVGDRVTITCRASQNIGSNLAWYQQKPGKAPKLLIYDASKLESGVPSRFSGSGSGTEFTLTISSLQPDDFATYYCQTTVRGGAYGNAFGGGTKVEIKR |  |  | 3.4 | 5.1 | 2.9 | 7.7
5 | TfRANTIBODY-B HC-H1C/LC-L2 (C90S) hIgG1Fab′(1C) (Fab, V domains shown, also called ANTIBODY-B H1C/L2(C90S)) VH: QSLVESGGGVVQPGRSLRLSCAASGFSFSNSYWICWVRQAPGKGLEWVGCINTDADSTNYADSVKGRFTISKDNSKNTVYLQMNSLRAEDTAVYYCARQNNVFDPGYNLWGQGTLVTVSS VL: ELVLTQSPSTLSASVGDRVTITCRASQNIGSNLAWYQQKPGKAPKLLIYDASKLESGVPSRFSGSGSGTEFTLTISSLQPDDFATYYCQSTVRGGAYGNAFGGGTKVEIKR |  |  | 3.2 | 6.1 | 4.4 | 14.9
6 | TfRANTIBODY-B HC-H1C/LC-L2 (C90T) hIgG1Fab′(1C) (Fab, V domains shown, also called ANTIBODY-B H1C/L2(C90T)) VH: QSLVESGGGVVQPGRSLRLSCAASGFSFSNSYWICWVRQAPGKGLEWVGCINTDADSTNYADSVKGRFTISKDNSKNTVYLQMNSLRAEDTAVYYCARQNNVFDPGYNLWGQGTLVTVSS VL: ELVLTQSPSTLSASVGDRVTITCRASQNIGSNLAWYQQKPGKAPKLLIYDASKLESGVPSRFSGSGSGTEFTLTISSLQPDDFATYYCQTTVRGGAYGNAFGGGTKVEIKR |  |  | 3.2 | 13.6 | 5.4 | 12.6
